Results on two molecules are retold here after US7482329B2, “Single domain TDF-related compounds and analogs thereof” (Thrasos Therapeutics, priority 2002, dated 2009).

Entries after “also recorded” stand apart in the source; their conditions may differ. Where a SMILES comes first, the peptide text is derived from it.

Experiment [1] relates to ICAM-1 in HK2 human transformed kidney proximal tubule cells. Nature of the experiment: ICAM-1 level in HK-2 cell medium after TNF-alpha stimulation (ELISA). In kind it is cell-based. Particulars: FIG. 7; for effect on level of ICAM-1 in HK2 cell medium: after TNF-alpha inflammatory stimulation. As to the method: The immortalized PTEC-derived HK-2 (Human Kidney-2) cells (ATCC number CRL-2190) were grown in serum-free keratinocyte medium (GIBCO number 17005-042) supplemented with epidermal growth factor (EGF: 5 ng/mL) and bovine pituitary extract (40 ug/mL) for 48 hours as described previously (Ryan et al (1994) Kidney International 45:48-57). Cells were transferred to 24-well plates at a density of 3×10^5 cells per well. After 24 hours, cells were incubated with fresh medium containing TNF-alpha (5 ng/mL) for 20 hours. Controls received medium alone. Then cells were washed twice with fresh culture medium and further incubated with culture medium alone (medium control, and TNF control wells) or TDF-1 at three different concentrations (40, 200 or 1000 ng/mL) or TDFRP compounds at three different concentrations (4, 20 or 100 uM) for sixty hours. During incubation, cells were kept in a 5% CO2 humid atmosphere at 37° C. At the end of the incubation, the media were removed and stored frozen until assayed. The concentrations of IL-6 and sICAM-in culture supernatants were measured by specific ELISA.
Dilute the capture antibody to the working concentration in PBS, pH 7.4 without carrier protein. Add 61 uL of stock antibody (720 ug/mL) to 10.939 mL of PBS, gently vertex. Immediately coat a 96 well microplate (Immulon 4 HBX) with 100 uL per well of the diluted capture antibody. Seal the plate and incubate it overnight in cold (4° C.). (PBS: 8.1 mM Na2HPO4, 1.5 mM KH2PO4, 137 mM NaCl, 2.7 mM KCl, pH 7.4, 0.2 um filtered).
Next day empty the wells and wash the wells three times, each time using 340 uL of wash buffer per well. (wash buffer: PBS, pH 7.4 containing 0.05% Tween-20). Prepare blocking buffer, 35 mL per plate. To prepare blocking buffer, add 0.35 grams of BSA and 1.75 grams of sucrose to 35 mL of PBS, pH 7.4, and mix the contents gently. Add 300 uL of blocking buffer to each well and incubate the plate for a minimum of 1 hour at room temperature. Empty the wells and wash wells three times, each time using 340 uL of wash buffer per well. […]

The test system of experiment [2] is unilateral ureteral obstruction. As to conditions: rats, administered systemically, UUO; cited from earlier work.
Experiment [3] deals with end stage renal failure in a remnant kidney. As to conditions: rats, administered systemically, remnant kidney (5/6 nephrectomy); cited from earlier work.
Experiment [4] concerns the target T1, BMPR-1A (ALK3) receptor extra cellular domain (Homo sapiens, UniProt P36894).
T1 construct: immobilized BMPR-1A receptor extra cellular domain (ECD)
Nature of the experiment: Radio-ligand receptor binding assay, competition with 125I-labeled TDF-1 for ALK-3. As to conditions: FIG. 1; cold ligand vs 125I-labeled TDF-1; read-out: ED50, displacing labeled TDF-1 from immobilized BMPR-1A receptor ECD. The source says: General protocol: These assays are based on competition between ^125I-labeled TDF-1 (BMP-7 or OP-1) and candidate TDFRP compounds or unlabeled TDF-1 for binding to respective receptors (ALK-3, ALK-6 or BMPR-2). In brief, the procedure involves immobilization of receptor on 96 well Removawell plates, blocking the wells with 3% BSA in PBS and subsequently washing the wells. Increasing concentrations of unlabeled TDF-1 or TDFRP compounds or control (unlabeled TDF-1) prepared in binding buffer are then added. Incubate plate for 1 hour at room temperature, and then add a fixed amount of ^125I-labeled TDF-1 (250,000 to 350,000 cpm) to the wells and further incubate in cold (4° C.) for 20 hours. Aspirate the contents of the wells and wash the wells four times with a wash buffer, and count the receptor bound ^125I-labeled TDF-1 in an auto gamma counter. B. HK-2 Cell Culture and Determination of Cytokine Production

T1 sequence (P36894 24-152 limits assumed, species assumed): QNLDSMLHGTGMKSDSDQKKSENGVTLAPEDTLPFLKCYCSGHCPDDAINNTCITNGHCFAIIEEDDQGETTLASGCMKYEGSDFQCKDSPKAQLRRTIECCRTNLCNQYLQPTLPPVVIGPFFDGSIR

As for `CC(C)C[C@H](NC(=O)[C@@H](NC(=O)[C@H](CC(N)=O)NC(=O)[C@H](CO)NC(=O)[C@H](CO)NC(=O)[C@H](CC(=O)O)NC(=O)[C@H](CC(=O)O)NC(=O)[C@H](Cc1ccccc1)NC(=O)[C@H](Cc1ccc(O)cc1)NC(=O)[C@@H](N)CS)C(C)C)C(=O)N[C@@H](CS)C(=O)N[C@@H](CCCCN)C(=O)N[C@@H](CCCCN)C(=O)N[C@@H](Cc1ccc(O)cc1)C(=O)N[C@@H](CCCNC(=N)N)C(=O)N[C@@H](CO)C(=O)O` [SEQ ID NO:45, CYFDDSSNVLCKKYRS] (H-CYFDDSSNVLCKKYRS-OH), the EC50 in experiment [1] (HK2 cells, TNF-alpha stimulus, read-out: ED50, lowering of ICAM-1 level) is less than 4000 nM. Moreover, in experiment [1], the “effect on level of ICAM-1 in HK2 cell medium” value is “reduces the level of cellular inflammation marker ICAM-1; also recorded: lowers the level of ICAM-1 in a dose dependent manner”.

B1: TDF-1: TDF-1 (BMP-7 or OP-1), bone morphogenetic protein-7; unlabeled control ligand in the binding and cell assays (protein)
chain: STGSKQRSQNRSKTPKNQEALRMANVAENSSSDQRQACKKHELYVSFRDLGWQDWIIAPEGYAAYYCEGECAFPLNSYMNATNHAIVQTLVHFINPETVPKPCCAPTQLNAISVLYFDDSSNVILKKYRNMVVRACGCH
Turning to B1, the “effect on level of ICAM-1 in HK2 cell medium” value in experiment [1] is listed as “lowers the level of ICAM-1 in a dose dependent manner”. Further, the “prophylaxis in unilateral ureteral obstruction” value in experiment [2] is given as “short term prophylaxis”. In addition, in experiment [3], the “progression of end stage renal failure” value is reported as “halts the progression of end stage renal failure”. Further, the EC50 in experiment [4] was 6.5 nM.
